Bridge positions count the residues as written; N and C are the ends. Square brackets hold non-standard residues; d marks the D form. Ends that are not written are not given here. Bip = N[C@@H](Cc1ccc(-c2ccccc2)cc1)C(=O)O; 1Nal = N[C@@H](Cc1cccc2ccccc12)C(=O)O; 2Nal = N[C@@H](Cc1ccc2ccccc2c1)C(=O)O; d2Nal = N[C@H](Cc1ccc2ccccc2c1)C(=O)O; Bta = N[C@@H](Cc1csc2ccccc12)C(=O)O; Nle = CCCC[C@H](N)C(=O)O; GABA = NCCCC(=O)O; βAla = NCCC(=O)O
B1: D-Phe-c(Cys-His-D-Phe-Arg-Trp-Gaba-D-Cys)-Thr-NH2 (peptide)
peptide: [dF]CH[dF]RW[GABA][dC]T-NH2
modifications: disulfide 2-8; N-terminus assumed
SMILES: C[C@@H](O)[C@H](NC(=O)[C@H]1CSSC[C@H](NC(=O)[C@H](N)Cc2ccccc2)C(=O)N[C@@H](Cc2c[nH]cn2)C(=O)N[C@H](Cc2ccccc2)C(=O)N[C@@H](CCCNC(=N)N)C(=O)N[C@@H](Cc2c[nH]c3ccccc23)C(=O)NCCCC(=O)N1)C(N)=O
B2: Ac-Nle-c(Cys-D-Ala-His-D-2-Nal-Arg-2-Nal-Cys)-NH2 (peptide)
peptide: Ac-[Nle]C[dA]H[d2Nal]R[2Nal]C-NH2
modifications: disulfide 2-8
SMILES: CCCC[C@H](NC(C)=O)C(=O)N[C@H]1CSSC[C@@H](C(N)=O)NC(=O)[C@H](Cc2ccc3ccccc3c2)NC(=O)[C@H](CCCNC(=N)N)NC(=O)[C@@H](Cc2ccc3ccccc3c2)NC(=O)[C@H](Cc2c[nH]cn2)NC(=O)[C@@H](C)NC1=O
B3: Ac-c(Cys-Glu-His-D-2-Nal-Arg-Bal-Ala-Cys)-Pro-Pro-Lys-Asp-NH2 (peptide)
peptide: Ac-CEH[d2Nal]R[Bta]ACPPKD-NH2
modifications: disulfide 1-8
SMILES: CC(=O)N[C@H]1CSSC[C@@H](C(=O)N2CCC[C@H]2C(=O)N2CCC[C@H]2C(=O)N[C@@H](CCCCN)C(=O)N[C@@H](CC(=O)O)C(N)=O)NC(=O)[C@H](C)NC(=O)[C@H](Cc2csc3ccccc23)NC(=O)[C@H](CCCNC(=N)N)NC(=O)[C@@H](Cc2ccc3ccccc3c2)NC(=O)[C@H](Cc2c[nH]cn2)NC(=O)[C@H](CCC(=O)O)NC1=O
B4: Ac-c(Cys-Glu-His-D-2-Nal-Arg-1-Nal-Ala-Cys)-Pro-Pro-Lys-Asp-NH2 (peptide)
peptide: Ac-CEH[d2Nal]R[1Nal]ACPPKD-NH2
modifications: disulfide 1-8
SMILES: CC(=O)N[C@H]1CSSC[C@@H](C(=O)N2CCC[C@H]2C(=O)N2CCC[C@H]2C(=O)N[C@@H](CCCCN)C(=O)N[C@@H](CC(=O)O)C(N)=O)NC(=O)[C@H](C)NC(=O)[C@H](Cc2cccc3ccccc23)NC(=O)[C@H](CCCNC(=N)N)NC(=O)[C@@H](Cc2ccc3ccccc3c2)NC(=O)[C@H](Cc2c[nH]cn2)NC(=O)[C@H](CCC(=O)O)NC1=O
B5: Ac-Nle-c(Cys-D-Ala-His-D-2-Nal-Arg-1-Nal-Cys)-NH2 (peptide)
peptide: Ac-[Nle]C[dA]H[d2Nal]R[1Nal]C-NH2
modifications: disulfide 2-8
SMILES: CCCC[C@H](NC(C)=O)C(=O)N[C@H]1CSSC[C@@H](C(N)=O)NC(=O)[C@H](Cc2cccc3ccccc23)NC(=O)[C@H](CCCNC(=N)N)NC(=O)[C@@H](Cc2ccc3ccccc3c2)NC(=O)[C@H](Cc2c[nH]cn2)NC(=O)[C@@H](C)NC1=O
B6: D-Phe-c(Cys-His-D-Phe-Arg-Bip-β-Ala-D-Cys)-Thr-NH2 (peptide)
peptide: [dF]CH[dF]R[Bip][βAla][dC]T-NH2
modifications: disulfide 2-8; N-terminus assumed
SMILES: C[C@@H](O)[C@H](NC(=O)[C@H]1CSSC[C@H](NC(=O)[C@H](N)Cc2ccccc2)C(=O)N[C@@H](Cc2c[nH]cn2)C(=O)N[C@H](Cc2ccccc2)C(=O)N[C@@H](CCCNC(=N)N)C(=O)N[C@@H](Cc2ccc(-c3ccccc3)cc2)C(=O)NCCC(=O)N1)C(N)=O

Experiments:
[1] = molecular target: hMC4-R (human) (UniProt P32245); experiment: competition with [125I]-NDP-α-MSH, CHO-K1 membranes
[2] = molecular target: hMC3-R (human) (UniProt P41968); experiment: as above
[3] = molecular target: hMC5-R (human) (UniProt P33032); experiment: as above
[4] = molecular target: hMC1-R (human) (UniProt Q01726); experiment: as above
[5] = molecular target: hMC1-R (human) (UniProt Q01726); experiment: ratio Ki hMC1-R / Ki hMC4-R, same assay
[6] = molecular target: human melanocortin receptor subtype 4 (hMC4-R) (human), P32245; experiment: [125I]-NDP-α-MSH competition, membranes
[7] = molecular target: human melanocortin receptor subtype 5 (hMC5-R) (human), P33032; experiment: [125I]-NDP-α-MSH competition, membranes
[8] = molecular target: human melanocortin receptor subtype 3 (hMC3-R) (human), P41968; experiment: [125I]-NDP-α-MSH competition, membranes
[9] = molecular target: human melanocortin receptor subtype 1 (hMC1-R) (human), Q01726; experiment: [125I]-NDP-α-MSH competition, membranes
[10] = molecular target: hMC4-R (human) (UniProt P32245); experiment: cell-based or functional assay
[11] = molecular target: hMC3-R (human) (UniProt P41968); experiment: cell-based or functional assay
[12] = molecular target: hMC5-R (human) (UniProt P33032); experiment: cell-based or functional assay
[13] = molecular target: hMC1-R (human) (UniProt Q01726); experiment: cell-based or functional assay

hMC4-R (human), sequence (P32245 whole entry): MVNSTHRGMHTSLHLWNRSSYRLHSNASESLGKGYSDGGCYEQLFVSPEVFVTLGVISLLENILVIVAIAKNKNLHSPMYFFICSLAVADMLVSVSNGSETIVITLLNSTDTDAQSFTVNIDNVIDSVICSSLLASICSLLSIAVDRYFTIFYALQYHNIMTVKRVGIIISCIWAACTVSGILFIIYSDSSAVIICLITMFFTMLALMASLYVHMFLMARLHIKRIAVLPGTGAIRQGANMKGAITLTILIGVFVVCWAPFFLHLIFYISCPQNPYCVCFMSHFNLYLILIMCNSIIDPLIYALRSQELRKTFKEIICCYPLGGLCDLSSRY
human melanocortin receptor subtype 4 (hMC4-R) (human), P32245, sequence (P32245 whole entry): as above
human melanocortin receptor subtype 1 (hMC1-R) (human), Q01726, sequence (Q01726 whole entry): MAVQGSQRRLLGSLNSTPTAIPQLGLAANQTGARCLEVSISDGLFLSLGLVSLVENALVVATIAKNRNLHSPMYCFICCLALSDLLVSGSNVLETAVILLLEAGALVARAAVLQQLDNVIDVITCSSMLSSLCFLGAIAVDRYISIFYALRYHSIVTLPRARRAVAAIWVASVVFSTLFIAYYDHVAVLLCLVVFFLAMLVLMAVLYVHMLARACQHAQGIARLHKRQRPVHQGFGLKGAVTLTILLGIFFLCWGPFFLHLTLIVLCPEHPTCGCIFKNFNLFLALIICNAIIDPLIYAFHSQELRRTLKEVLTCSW
hMC1-R (human), sequence (Q01726 whole entry): as above
human melanocortin receptor subtype 3 (hMC3-R) (human), P41968, sequence (P41968 whole entry): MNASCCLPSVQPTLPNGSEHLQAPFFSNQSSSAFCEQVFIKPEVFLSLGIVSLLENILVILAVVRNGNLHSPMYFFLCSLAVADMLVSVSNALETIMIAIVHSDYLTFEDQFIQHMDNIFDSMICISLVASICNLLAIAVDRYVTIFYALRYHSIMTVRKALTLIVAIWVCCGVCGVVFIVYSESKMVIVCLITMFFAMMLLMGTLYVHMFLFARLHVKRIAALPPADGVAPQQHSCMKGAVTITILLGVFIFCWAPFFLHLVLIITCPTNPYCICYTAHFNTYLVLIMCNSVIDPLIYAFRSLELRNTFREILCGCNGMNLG
hMC3-R (human), sequence (P41968 whole entry): as above
human melanocortin receptor subtype 5 (hMC5-R) (human), P33032, sequence (P33032 whole entry): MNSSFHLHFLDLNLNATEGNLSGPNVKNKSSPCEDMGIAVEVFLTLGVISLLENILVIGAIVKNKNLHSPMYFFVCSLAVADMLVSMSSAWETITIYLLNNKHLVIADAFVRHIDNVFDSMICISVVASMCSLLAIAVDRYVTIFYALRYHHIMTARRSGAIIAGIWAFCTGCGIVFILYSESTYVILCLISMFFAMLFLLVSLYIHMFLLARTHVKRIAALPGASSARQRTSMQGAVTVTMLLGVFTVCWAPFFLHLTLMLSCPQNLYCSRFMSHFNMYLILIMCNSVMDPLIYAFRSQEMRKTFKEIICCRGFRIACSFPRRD
hMC5-R (human), sequence (P33032 whole entry): as above

| Binder | Ki [1] [nM] | Ki [2] [nM] | Ki [3] [nM] | Ki [4] [nM] | Ki hMC1-R/MC4-R [5] | Ki [6] [nM] | Ki [7] [nM] | Ki [8] [nM] | Ki [9] [nM] | cAMP Kb [10] [nM] | cAMP Kb [11] [nM] | cAMP EC50 [12] [nM] | cAMP EC50 [13] [nM] |
| --- | --- | --- | --- | --- | --- | --- | --- | --- | --- | --- | --- | --- | --- |
| B1 | 4.75 | 106 | 1260 | 0.42 | 0.09 |  |  |  |  |  |  |  |  |
| B2 | 2.53 | 5.85 | 94.6 | 32.5 | 12.8 |  |  |  |  |  |  |  |  |
| B3 |  |  |  |  |  | 0.586 | 844 | 23 | 163 |  |  |  |  |
| B4 |  |  |  |  |  | 1.11 | 348 | 17.8 | 124 |  |  |  |  |
| GGC[dA]H[dF]RWC-NH2 (disulfide 3-9; also: hydantoin ring from C(O) with Gly1-Gly2) [Hydantoin(C(O)-(Gly-Gly))-c(Cys-D-Ala-His-D-Phe-Arg-Trp-Cys)-NH2] |  |  |  |  |  | 8.32 | 50 | 69.7 | 20.9 |  |  |  |  |
| Ac-[Nle]CH[d2Nal]RW[GABA]C-NH2 (disulfide 2-8) [Ac-Nle-c(Cys-His-D-2-Nal-Arg-Trp-Gaba-Cys)-NH2] | 0.375 | 1.86 | 1.11 | 0.393 | 1.05 |  |  |  |  | 0.782 | 18.4 | 0.153 | 0.231 |
| [dF]CH[d(Et)Tyr]RW[βAla][dC]T-NH2 (disulfide 2-8) [D-Phe-c(Cys-His-D-(Et)Tyr-Arg-Trp-β-Ala-D-Cys)-Thr-NH2] | 1.1 | 9.3 | 2.9 | 0.05 | 0 |  |  |  |  |  |  |  |  |
| B5 | 3.07 | 63.9 | 1660 | 114 | 37.1 |  |  |  |  | 53.6 | 61.5 | 2840 | 383 |
| B6 | 583 | 3370 | 1130 | 5.8 | 0.01 |  |  |  |  |  |  |  |  |
